The results in this text go back to US20240327522A1 (Genentech, published 2024).

In one assay the target is T1, human αvβ1 (human, UniProt P06756 31-992; P05556 21-728).
T1 construct: Counter-screen integrin; construct not described; also called hu.aVb1; αVP1
Put plainly: SPR binding assay, sample hu.aVb1,3,5,6.

A further assay has as its target T2, human αvβ3 (human, UniProt P06756 31-992; P05106 27-718).
T2 construct: Counter-screen integrin; construct not described; also called hu.aVb3; αV03
Put plainly: SPR binding assay, sample hu.aVb1,3,5,6. On the technique in general: In SPR one partner is held on a chip, and binding of the other changes the refractive index at the surface.

A further assay deals with T3, human αvβ5 (human, UniProt P06756 31-992; P18084 24-719).
T3 construct: Counter-screen integrin; construct not described; also called hu.aVb5; αV05
The assay can be described thus: SPR binding assay, sample hu.aVb1,3,5,6.

Another assay has as its target T4, human αvβ6 (human, UniProt P06756 31-992; P18564 22-709).
T4 construct: Counter-screen integrin; construct not described; also called hu.aVb6; αV06
The assay can be described thus: SPR binding assay, sample hu.aVb1,3,5,6.

The target of assay [1] is T5, recombinant human αvβ8 protein (PARS-17102) (human).
T5 construct: also called hu.aVb8.17102; not shown: C-terminal acid/basic coils and any purification tags
T5 alpha: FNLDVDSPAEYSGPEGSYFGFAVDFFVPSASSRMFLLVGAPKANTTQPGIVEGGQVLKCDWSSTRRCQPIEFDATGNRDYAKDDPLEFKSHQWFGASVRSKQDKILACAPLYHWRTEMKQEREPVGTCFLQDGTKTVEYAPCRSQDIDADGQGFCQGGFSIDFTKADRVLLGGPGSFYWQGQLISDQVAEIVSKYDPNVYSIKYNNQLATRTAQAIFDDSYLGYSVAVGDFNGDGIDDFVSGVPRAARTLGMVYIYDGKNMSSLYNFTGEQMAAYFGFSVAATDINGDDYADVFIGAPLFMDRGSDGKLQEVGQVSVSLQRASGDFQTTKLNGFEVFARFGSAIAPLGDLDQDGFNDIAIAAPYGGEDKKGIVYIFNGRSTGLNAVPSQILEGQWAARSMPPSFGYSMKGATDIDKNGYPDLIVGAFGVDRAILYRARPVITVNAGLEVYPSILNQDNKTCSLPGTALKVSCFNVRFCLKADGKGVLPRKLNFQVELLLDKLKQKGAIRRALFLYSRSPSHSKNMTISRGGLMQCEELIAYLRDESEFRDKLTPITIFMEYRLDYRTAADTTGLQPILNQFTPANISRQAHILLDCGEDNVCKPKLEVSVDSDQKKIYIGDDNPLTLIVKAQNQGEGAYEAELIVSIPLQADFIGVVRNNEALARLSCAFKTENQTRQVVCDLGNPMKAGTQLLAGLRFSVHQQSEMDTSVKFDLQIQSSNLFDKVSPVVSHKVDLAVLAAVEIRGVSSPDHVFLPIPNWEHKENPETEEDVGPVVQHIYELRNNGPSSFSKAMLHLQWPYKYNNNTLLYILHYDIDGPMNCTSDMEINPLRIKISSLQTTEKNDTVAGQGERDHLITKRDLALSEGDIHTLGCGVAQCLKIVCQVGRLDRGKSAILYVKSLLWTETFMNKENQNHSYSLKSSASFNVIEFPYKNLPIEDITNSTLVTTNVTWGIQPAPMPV
T5 beta: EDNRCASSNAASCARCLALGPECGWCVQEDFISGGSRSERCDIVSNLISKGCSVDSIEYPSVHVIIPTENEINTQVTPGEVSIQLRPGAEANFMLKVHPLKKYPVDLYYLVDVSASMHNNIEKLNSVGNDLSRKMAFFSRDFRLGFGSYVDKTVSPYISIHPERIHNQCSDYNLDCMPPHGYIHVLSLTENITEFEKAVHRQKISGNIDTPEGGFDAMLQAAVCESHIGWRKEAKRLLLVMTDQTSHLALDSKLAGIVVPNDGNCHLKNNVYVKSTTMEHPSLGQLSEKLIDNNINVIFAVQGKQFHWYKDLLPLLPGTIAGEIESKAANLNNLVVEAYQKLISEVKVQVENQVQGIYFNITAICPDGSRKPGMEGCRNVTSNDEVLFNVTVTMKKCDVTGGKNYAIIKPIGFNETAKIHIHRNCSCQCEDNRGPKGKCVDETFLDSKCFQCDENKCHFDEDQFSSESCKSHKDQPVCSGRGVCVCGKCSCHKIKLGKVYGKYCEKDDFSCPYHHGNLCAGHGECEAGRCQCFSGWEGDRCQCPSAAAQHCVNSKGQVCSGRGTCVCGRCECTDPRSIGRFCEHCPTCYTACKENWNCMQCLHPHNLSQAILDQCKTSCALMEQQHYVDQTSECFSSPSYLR
Put plainly: SPR binding assay, experiment 1, antibody as ligand, aVb8 as sample.

Assay [2] addresses T6, recombinant mouse αvβ8 protein (PARS-17103) (murine, UniProt P43406 31-988; Q0VBD0 43-681, limits assumed).
T6 construct: Made in house; also called mu.aVb8.17103
The description is as above.

In assay [3] the target is T7, recombinant cynomolgus monkey αvβ8 protein (PARS-19393) (cynomolgus monkey, UniProt A0A2K5WCD3 31-992; G7P0S0 43-684).
T7 construct: also called cyno.aVb8-19393; cyno.aVb8
The description is as above.

Assay [4] addresses T5, recombinant human αvβ8 protein …. Put plainly: SPR binding assay, experiment 2, antibody as ligand, aVb8 as sample.
Assay [5] deals with T6, recombinant mouse αvβ8 protein …. The assay is described as above.
In the next assay the target is T8, cyno.aVb8.13650 (cynomolgus, UniProt A0A2K5WCD3 31-992; G7P0S0 43-684).
T8 construct: Carries another lot/construct number than cyno.aVb8-19393; kept apart; also called cynomolgus αvβ8
The description is as above.

T6 sequence (P43406 31-988 limits assumed, chain 1 of 2): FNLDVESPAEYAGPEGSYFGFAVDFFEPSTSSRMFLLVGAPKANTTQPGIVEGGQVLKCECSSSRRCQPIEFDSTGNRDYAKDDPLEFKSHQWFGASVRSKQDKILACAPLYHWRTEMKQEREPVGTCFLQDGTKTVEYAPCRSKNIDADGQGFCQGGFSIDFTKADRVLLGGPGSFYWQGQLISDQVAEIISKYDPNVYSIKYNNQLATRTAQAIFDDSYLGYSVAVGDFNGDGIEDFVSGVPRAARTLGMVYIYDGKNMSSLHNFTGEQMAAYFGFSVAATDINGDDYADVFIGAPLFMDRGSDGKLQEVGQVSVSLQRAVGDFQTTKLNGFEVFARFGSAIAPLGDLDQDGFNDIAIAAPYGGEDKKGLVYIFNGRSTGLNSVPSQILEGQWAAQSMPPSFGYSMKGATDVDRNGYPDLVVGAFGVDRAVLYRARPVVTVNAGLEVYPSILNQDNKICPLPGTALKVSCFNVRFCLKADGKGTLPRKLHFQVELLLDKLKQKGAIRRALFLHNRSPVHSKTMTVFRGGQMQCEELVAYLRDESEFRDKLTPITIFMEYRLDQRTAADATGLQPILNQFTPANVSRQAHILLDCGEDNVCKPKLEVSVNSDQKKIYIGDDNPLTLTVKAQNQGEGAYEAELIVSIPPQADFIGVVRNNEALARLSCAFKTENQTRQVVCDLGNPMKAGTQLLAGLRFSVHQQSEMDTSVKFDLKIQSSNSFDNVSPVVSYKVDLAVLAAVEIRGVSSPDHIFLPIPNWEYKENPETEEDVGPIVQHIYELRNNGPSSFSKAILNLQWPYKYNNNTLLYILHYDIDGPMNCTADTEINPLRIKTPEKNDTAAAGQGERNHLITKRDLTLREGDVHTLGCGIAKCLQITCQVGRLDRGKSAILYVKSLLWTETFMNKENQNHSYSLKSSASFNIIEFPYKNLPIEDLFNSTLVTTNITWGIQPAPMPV
T6 sequence (Q0VBD0 43-681 limits assumed, chain 2 of 2): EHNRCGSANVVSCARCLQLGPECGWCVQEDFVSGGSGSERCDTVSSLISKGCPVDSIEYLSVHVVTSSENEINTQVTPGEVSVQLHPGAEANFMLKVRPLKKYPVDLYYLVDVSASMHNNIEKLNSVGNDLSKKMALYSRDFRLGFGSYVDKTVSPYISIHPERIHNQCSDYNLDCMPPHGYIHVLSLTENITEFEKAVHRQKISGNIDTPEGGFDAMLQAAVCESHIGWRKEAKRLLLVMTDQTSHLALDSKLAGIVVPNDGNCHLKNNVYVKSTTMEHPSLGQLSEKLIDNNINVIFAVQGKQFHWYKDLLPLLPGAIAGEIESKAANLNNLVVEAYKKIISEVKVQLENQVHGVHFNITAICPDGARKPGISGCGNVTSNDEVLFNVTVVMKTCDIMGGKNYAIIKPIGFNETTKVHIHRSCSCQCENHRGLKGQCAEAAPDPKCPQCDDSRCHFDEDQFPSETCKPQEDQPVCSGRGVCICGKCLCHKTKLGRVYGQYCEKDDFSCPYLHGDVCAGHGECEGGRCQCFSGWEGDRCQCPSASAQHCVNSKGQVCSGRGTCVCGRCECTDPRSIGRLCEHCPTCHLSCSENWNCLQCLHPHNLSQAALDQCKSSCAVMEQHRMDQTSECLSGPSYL
T4 sequence (P18564 22-709 limits assumed, one chain of several): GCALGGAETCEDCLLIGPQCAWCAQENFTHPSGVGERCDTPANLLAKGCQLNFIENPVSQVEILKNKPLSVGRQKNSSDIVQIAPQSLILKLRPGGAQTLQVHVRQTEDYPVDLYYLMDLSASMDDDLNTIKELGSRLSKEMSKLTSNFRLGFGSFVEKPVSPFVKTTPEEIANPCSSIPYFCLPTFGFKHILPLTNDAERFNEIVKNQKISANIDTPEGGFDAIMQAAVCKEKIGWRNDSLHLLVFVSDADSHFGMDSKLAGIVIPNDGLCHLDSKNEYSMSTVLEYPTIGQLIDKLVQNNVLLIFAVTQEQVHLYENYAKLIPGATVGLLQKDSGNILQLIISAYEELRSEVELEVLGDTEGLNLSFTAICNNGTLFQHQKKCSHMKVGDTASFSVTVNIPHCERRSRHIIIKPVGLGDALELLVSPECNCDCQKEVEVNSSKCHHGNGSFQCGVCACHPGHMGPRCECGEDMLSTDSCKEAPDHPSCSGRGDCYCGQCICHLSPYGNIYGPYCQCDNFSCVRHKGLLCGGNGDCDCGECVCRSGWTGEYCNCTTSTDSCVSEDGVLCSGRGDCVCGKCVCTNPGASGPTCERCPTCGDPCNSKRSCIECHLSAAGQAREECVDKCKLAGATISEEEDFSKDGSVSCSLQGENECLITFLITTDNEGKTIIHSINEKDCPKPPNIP
T2 sequence (P05106 27-718 limits assumed, one chain of several): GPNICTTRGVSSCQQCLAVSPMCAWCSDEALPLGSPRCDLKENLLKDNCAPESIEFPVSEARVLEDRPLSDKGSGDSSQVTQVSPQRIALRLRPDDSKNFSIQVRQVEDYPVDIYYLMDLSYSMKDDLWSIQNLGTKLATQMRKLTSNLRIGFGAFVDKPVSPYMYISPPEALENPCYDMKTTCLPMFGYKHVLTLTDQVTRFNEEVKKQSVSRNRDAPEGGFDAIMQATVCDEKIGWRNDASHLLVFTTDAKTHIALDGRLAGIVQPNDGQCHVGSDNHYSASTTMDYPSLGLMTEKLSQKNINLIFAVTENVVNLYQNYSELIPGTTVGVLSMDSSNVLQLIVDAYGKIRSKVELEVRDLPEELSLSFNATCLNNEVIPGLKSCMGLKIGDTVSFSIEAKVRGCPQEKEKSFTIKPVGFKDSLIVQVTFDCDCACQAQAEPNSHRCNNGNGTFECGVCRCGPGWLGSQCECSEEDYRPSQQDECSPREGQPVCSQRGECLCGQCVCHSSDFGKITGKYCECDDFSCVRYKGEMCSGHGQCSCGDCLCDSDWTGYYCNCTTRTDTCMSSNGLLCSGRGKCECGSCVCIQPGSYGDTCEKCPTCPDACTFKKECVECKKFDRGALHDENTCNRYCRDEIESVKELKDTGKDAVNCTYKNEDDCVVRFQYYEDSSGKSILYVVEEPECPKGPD
T3 sequence (P18084 24-719 limits assumed, one chain of several): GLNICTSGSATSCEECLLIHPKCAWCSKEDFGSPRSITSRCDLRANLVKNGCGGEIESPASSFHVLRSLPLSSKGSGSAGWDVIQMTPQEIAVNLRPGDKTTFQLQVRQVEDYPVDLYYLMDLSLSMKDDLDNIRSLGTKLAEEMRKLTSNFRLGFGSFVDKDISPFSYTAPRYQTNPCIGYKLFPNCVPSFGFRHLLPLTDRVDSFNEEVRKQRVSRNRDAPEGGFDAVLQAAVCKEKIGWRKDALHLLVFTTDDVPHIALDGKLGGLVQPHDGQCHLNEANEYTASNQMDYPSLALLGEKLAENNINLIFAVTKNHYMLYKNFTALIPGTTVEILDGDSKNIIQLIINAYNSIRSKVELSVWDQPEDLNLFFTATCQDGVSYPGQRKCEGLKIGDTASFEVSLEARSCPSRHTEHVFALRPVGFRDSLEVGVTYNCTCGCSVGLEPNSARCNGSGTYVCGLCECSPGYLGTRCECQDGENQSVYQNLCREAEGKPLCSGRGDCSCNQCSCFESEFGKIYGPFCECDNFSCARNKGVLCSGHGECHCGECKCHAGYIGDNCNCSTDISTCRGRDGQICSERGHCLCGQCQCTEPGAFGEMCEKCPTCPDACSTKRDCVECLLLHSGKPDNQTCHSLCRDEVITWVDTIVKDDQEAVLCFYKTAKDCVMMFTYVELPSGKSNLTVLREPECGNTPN
T1 sequence (P05556 21-728 limits assumed, one chain of several): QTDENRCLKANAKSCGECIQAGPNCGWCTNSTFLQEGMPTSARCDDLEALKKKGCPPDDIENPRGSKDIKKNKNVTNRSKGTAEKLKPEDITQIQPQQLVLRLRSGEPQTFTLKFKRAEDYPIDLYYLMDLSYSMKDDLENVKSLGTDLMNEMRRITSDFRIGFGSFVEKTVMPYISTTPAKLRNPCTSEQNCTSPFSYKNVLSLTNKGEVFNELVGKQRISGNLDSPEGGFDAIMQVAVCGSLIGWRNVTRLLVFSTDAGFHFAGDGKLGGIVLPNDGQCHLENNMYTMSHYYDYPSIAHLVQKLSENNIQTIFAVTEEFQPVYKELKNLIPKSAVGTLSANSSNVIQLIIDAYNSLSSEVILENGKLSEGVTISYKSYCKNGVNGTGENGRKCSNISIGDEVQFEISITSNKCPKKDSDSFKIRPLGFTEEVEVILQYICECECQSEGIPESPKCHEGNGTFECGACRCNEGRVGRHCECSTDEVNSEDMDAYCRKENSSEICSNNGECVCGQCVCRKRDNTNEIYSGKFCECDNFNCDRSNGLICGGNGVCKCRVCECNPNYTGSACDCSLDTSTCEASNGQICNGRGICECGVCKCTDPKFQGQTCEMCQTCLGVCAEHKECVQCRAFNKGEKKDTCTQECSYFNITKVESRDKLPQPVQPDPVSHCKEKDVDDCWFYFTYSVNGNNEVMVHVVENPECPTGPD

B1: Hu.aVb8-92.H13L1 (aVb8-92.H13L1.hIgG1.LALAPG) (antibody, V domains shown)
VH: EQQLLESGGGLVQPGGSLRLSCAASGFSLSSYAMGWVRQAPGKGLEWIGVIRKDDNTYYGNWAKGRFTISRDSSKNTLYLQMNSLRAEDTAVYFCARALNTYVGFPYFNIWGPGTLVTVSS
VL: DAVLTQSPDSLAVSLGERATINCQSIKSVGDNKWLAWYQQKPGQPPKLLIYDASDLASGVPDRFSGSGSRTDFTLTISSLQAEDVAVYYCAGSVSSGDSGFGGGTKVEIKR
notes: Human IgG1 LALAPG; also called PARS-20463-65 (IH) aVb8-92.H13L1.hIgG1.LALAPG; humanized αvβ8-92
On to B1, for which the binding result with human αvβ1, with human αvβ3, in the assay with human αvβ5 and in the assay with human αvβ6 was “no binding” in each case. Also, the dissociation constant Kd in assay [1] came out at 10.1 nM; in [2], 9.91 nM; in [3], 11.1 nM; in assay [4], 2.95 nM; in assay [5], 3.42 nM; with cyno.aVb8.13650, 12.9 nM. Moreover, the koff turned out to be 0.000283 s⁻¹ in [1]; 0.000311 s⁻¹ in assay [2]; 0.000284 s⁻¹ in assay [3]; 0.000195 s⁻¹ in assay [4]; 0.000236 s⁻¹ in assay [5]; 0.000443 s⁻¹ with cyno.aVb8.13650. Further, the kon in assay [1] came out at 28000 M⁻¹ s⁻¹; in assay [2] it was 31400 M⁻¹ s⁻¹; in assay [3], 25500 M⁻¹ s⁻¹; in assay [4], 66100 M⁻¹ s⁻¹; in [5] it was 69100 M⁻¹ s⁻¹; with cyno.aVb8.13650, 34500 M⁻¹ s⁻¹.

As a reminder, the Kd is the constant that tells how readily two partners part at equilibrium. For orientation: koff means the rate constant with which the complex falls apart. By kon is commonly meant the second-order rate constant of association.
